Legend:
Experiment in all cases: holdup assay
Design in all cases: key: below the threshold = too weak to quantify, mostly under pKd 3.1 to 4
ARHGEF11, O15085 = target: T1, ARHGEF11, O15085
T1 sequence (O15085 42-136, limits assumed, looked up): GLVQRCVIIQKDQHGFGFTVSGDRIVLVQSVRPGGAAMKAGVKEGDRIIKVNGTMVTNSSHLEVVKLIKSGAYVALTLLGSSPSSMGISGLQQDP

LNX1_3, Q8TBB1 = target: LNX1_3, Q8TBB1
PTPN13_1, Q12923 = target: T2, PTPN13_1, Q12923
T2 sequence (Q12923 1088-1188, limits assumed, looked up): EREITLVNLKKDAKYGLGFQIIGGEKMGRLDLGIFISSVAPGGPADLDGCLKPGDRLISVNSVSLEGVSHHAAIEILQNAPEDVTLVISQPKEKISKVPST

DVL3, Q92997 = target: T3, DVL3, Q92997
T3 sequence (Q92997 244-331, limits assumed, looked up): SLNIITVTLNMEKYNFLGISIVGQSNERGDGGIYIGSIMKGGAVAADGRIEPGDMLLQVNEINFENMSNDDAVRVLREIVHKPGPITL

LNX2_2, Q8N448 = target: T4, LNX2_2, Q8N448
T4 sequence (Q8N448 334-432, limits assumed, looked up): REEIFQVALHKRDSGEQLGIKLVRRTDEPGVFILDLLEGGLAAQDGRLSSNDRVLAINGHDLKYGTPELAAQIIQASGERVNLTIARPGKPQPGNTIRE

GRIP2_6, Q9C0E4 = target: GRIP2_6, Q9C0E4
Chain of GRIP2_6, Q9C0E4 (Q9C0E4 648-740): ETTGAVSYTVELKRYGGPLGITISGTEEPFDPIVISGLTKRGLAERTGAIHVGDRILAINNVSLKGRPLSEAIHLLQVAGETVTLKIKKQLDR

HTRA4, P83105 = target: T5, HTRA4, P83105
T5 sequence (P83105 378-476, limits assumed, looked up): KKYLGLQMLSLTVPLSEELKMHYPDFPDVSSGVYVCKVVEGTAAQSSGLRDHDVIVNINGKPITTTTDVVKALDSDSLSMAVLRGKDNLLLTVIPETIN

NHERF4_2, Q86UT5 = target: NHERF4_2, Q86UT5
Chain of NHERF4_2, Q86UT5 (Q86UT5 220-308): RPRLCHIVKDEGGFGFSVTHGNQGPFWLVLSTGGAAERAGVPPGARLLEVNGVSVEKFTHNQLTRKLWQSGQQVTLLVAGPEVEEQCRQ

MAGI2_5, Q86UL8 = target: MAGI2_5, Q86UL8
Chain of MAGI2_5, Q86UL8 (Q86UL8 915-1017): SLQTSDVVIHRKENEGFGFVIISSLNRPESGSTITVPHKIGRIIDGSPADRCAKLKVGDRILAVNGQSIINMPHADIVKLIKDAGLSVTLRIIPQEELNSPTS

PDZRN3_1, Q9UPQ7 = target: T6, PDZRN3_1, Q9UPQ7
T6 sequence (Q9UPQ7 244-349, limits assumed, looked up): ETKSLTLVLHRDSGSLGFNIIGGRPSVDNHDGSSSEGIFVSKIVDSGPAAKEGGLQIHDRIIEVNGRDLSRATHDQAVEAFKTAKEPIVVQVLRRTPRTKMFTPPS

CARD11, Q9BXL7 = target: T7, CARD11, Q9BXL7
T7 sequence (Q9BXL7 662-765, limits assumed, looked up): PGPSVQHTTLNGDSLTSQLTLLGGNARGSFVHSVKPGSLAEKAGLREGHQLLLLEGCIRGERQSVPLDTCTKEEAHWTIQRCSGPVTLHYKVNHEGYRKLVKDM

DLG5_1, Q8TDM6 = target: DLG5_1, Q8TDM6
Chain of DLG5_1, Q8TDM6 (Q8TDM6 617-713): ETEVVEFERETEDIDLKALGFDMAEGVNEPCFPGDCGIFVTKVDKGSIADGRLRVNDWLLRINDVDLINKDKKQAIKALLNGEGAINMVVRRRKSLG

GRIP1_4, Q9Y3R0 = target: T8, GRIP1_4, Q9Y3R0
T8 sequence (Q9Y3R0 467-571, limits assumed, looked up): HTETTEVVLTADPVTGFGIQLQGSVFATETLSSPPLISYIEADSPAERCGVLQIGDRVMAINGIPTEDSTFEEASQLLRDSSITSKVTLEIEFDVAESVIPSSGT

PDZD2_2, O15018 = target: T9, PDZD2_2, O15018
T9 sequence (O15018 329-429, limits assumed, looked up): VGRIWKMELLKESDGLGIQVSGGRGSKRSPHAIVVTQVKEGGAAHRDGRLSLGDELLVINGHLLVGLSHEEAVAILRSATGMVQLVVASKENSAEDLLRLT

NOS1, P29475 = target: NOS1, P29475
Chain of NOS1, P29475 (P29475 9-101): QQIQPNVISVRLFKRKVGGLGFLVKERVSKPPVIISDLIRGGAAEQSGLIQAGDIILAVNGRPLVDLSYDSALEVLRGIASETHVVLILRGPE

PARD3_3, Q8TEW0 = target: PARD3_3, Q8TEW0
Chain of PARD3_3, Q8TEW0 (Q8TEW0 582-685): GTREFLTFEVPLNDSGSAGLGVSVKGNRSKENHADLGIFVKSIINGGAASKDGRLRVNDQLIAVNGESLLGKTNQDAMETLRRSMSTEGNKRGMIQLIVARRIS

GRID2IP_2, A4D2P6 = target: GRID2IP_2, A4D2P6
Chain of GRID2IP_2, A4D2P6 (A4D2P6 272-370): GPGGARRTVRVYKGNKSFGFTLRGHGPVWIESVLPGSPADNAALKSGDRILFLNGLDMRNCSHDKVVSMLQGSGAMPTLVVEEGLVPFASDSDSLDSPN

Inadl_3, Q8NI35 = target: Inadl_3, Q8NI35
Chain of Inadl_3, Q8NI35 (Q8NI35 359-469): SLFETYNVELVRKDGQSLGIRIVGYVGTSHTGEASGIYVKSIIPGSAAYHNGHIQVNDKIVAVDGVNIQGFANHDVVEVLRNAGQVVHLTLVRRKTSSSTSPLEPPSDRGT

GRIP2_3, Q9C0E4 = target: GRIP2_3, Q9C0E4
Chain of GRIP2_3, Q9C0E4 (Q9C0E4 238-339): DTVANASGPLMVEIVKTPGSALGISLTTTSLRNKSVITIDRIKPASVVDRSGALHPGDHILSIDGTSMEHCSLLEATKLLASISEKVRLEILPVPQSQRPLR

RAPGEF6, Q8TEU7 = target: T10, RAPGEF6, Q8TEU7
T10 sequence (Q8TEU7 525-625, limits assumed, looked up): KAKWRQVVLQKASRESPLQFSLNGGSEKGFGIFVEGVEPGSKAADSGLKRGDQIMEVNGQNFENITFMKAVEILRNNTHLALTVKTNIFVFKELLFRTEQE

LNX2_3, Q8N448 = target: T11, LNX2_3, Q8N448
T11 sequence (Q8N448 463-564, limits assumed, looked up): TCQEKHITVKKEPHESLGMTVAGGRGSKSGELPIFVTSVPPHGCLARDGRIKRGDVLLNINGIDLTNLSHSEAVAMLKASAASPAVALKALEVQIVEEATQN

SNX27, Q96L92 = target: SNX27, Q96L92
FRMPD1, Q5SYB0 = target: T12, FRMPD1, Q5SYB0
T12 sequence (Q5SYB0 52-145, limits assumed, looked up): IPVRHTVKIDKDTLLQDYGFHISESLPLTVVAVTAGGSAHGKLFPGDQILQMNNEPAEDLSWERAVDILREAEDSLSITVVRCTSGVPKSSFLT

LIMK2, P53671 = target: LIMK2, P53671
Chain of LIMK2, P53671 (P53671 143-248): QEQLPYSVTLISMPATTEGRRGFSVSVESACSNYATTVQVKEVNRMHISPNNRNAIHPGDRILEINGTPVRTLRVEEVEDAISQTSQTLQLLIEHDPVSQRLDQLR

MAGI1_2, Q96QZ7 = target: MAGI1_2, Q96QZ7
Chain of MAGI1_2, Q96QZ7 (Q96QZ7 456-580): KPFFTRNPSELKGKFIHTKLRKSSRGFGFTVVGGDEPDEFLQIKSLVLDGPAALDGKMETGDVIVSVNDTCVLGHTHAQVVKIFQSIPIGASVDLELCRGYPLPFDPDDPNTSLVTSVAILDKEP

GORASP1, Q9BQQ3 = target: GORASP1, Q9BQQ3
Chain of GORASP1, Q9BQQ3 (Q9BQQ3 1-208): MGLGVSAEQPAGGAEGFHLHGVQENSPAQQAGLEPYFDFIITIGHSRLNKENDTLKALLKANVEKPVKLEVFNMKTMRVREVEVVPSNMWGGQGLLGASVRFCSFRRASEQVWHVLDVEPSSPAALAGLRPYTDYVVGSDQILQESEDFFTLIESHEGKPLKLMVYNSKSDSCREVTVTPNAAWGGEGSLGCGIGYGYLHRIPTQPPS

[1] = plain residues with an end cap or a label only (N-terminal biotin on a linker: ahx)
[2] = plain residues with an end cap or a label only (N-terminal biotin on a linker: ado-ado)

Chain of LNX1_3, Q8TBB1 (Q8TBB1 500-596): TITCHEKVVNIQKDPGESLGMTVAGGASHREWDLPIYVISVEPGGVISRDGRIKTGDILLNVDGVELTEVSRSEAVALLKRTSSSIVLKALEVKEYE

QPRTWLQSPV [RTKN, Q9BST9]
pKd (ARHGEF11, O15085; [1]): below the threshold | pKd (LNX1_3, Q8TBB1; [1]): below the threshold | pKd (PTPN13_1, Q12923; [1]): below the threshold | pKd (DVL3, Q92997; [1]): below the threshold | pKd (LNX2_2, Q8N448; [1]): below the threshold | pKd (GRIP2_6, Q9C0E4; [1]): below the threshold | pKd (HTRA4, P83105; [1]): below the threshold | pKd (NHERF4_2, Q86UT5; [1]): below the threshold | pKd (MAGI2_5, Q86UL8; [1]): 4.33 | pKd (PDZRN3_1, Q9UPQ7; [1]): below the threshold | pKd (CARD11, Q9BXL7; [1]): below the threshold | pKd (DLG5_1, Q8TDM6; [1]): below the threshold | pKd (GRIP1_4, Q9Y3R0; [1]): below the threshold | pKd (PDZD2_2, O15018; [1]): 4.71 | pKd (NOS1, P29475; [1]): 3.6 | pKd (PARD3_3, Q8TEW0; [1]): below the threshold | pKd (GRID2IP_2, A4D2P6; [1]): below the threshold | pKd (Inadl_3, Q8NI35; [1]): below the threshold | pKd (GRIP2_3, Q9C0E4; [1]): below the threshold | pKd (RAPGEF6, Q8TEU7; [1]): below the threshold | pKd (LNX2_3, Q8N448; [1]): below the threshold | pKd (SNX27, Q96L92; [1]): 4.31 | pKd (FRMPD1, Q5SYB0; [1]): below the threshold | pKd (LIMK2, P53671; [1]): below the threshold | pKd (MAGI1_2, Q96QZ7; [1]): 4.83 | pKd (GORASP1, Q9BQQ3; [1]): below the threshold

EIPAQSPTCV [FZD10, Q9ULW2]
pKd (ARHGEF11, O15085; [2]): 4.2 | pKd (LNX1_3, Q8TBB1; [2]): below the threshold | pKd (PTPN13_1, Q12923; [2]): 3.72 | pKd (DVL3, Q92997; [2]): 3.6 | pKd (LNX2_2, Q8N448; [2]): 5.04 | pKd (GRIP2_6, Q9C0E4; [2]): 3.74 | pKd (HTRA4, P83105; [2]): 4.29 | pKd (NHERF4_2, Q86UT5; [2]): below the threshold | pKd (MAGI2_5, Q86UL8; [2]): 3.67 | pKd (PDZRN3_1, Q9UPQ7; [2]): below the threshold | pKd (CARD11, Q9BXL7; [2]): 3.56 | pKd (DLG5_1, Q8TDM6; [2]): 3.71 | pKd (GRIP1_4, Q9Y3R0; [2]): 3.64 | pKd (PDZD2_2, O15018; [2]): 4.49 | pKd (NOS1, P29475; [2]): 4.17 | pKd (PARD3_3, Q8TEW0; [2]): 3.65 | pKd (GRID2IP_2, A4D2P6; [2]): 3.67 | pKd (Inadl_3, Q8NI35; [2]): 3.62 | pKd (GRIP2_3, Q9C0E4; [2]): 3.61 | pKd (RAPGEF6, Q8TEU7; [2]): below the threshold | pKd (LNX2_3, Q8N448; [2]): 3.78 | pKd (SNX27, Q96L92; [2]): 4.08 | pKd (FRMPD1, Q5SYB0; [2]): 3.56 | pKd (LIMK2, P53671; [2]): below the threshold | pKd (MAGI1_2, Q96QZ7; [2]): 3.88 | pKd (GORASP1, Q9BQQ3; [2]): 3.85

DPAESMESLV [PTPRG, P23470]
pKd (ARHGEF11, O15085; [2]): 3.61 | pKd (LNX1_3, Q8TBB1; [2]): below the threshold | pKd (PTPN13_1, Q12923; [2]): below the threshold | pKd (DVL3, Q92997; [2]): below the threshold | pKd (LNX2_2, Q8N448; [2]): 4.3 | pKd (GRIP2_6, Q9C0E4; [2]): below the threshold | pKd (HTRA4, P83105; [2]): 3.83 | pKd (NHERF4_2, Q86UT5; [2]): below the threshold | pKd (MAGI2_5, Q86UL8; [2]): 5.32 | pKd (PDZRN3_1, Q9UPQ7; [2]): 3.96 | pKd (CARD11, Q9BXL7; [2]): below the threshold | pKd (DLG5_1, Q8TDM6; [2]): below the threshold | pKd (GRIP1_4, Q9Y3R0; [2]): below the threshold | pKd (PDZD2_2, O15018; [2]): 5.16 | pKd (NOS1, P29475; [2]): 3.74 | pKd (PARD3_3, Q8TEW0; [2]): 3.93 | pKd (GRID2IP_2, A4D2P6; [2]): below the threshold | pKd (Inadl_3, Q8NI35; [2]): 4.08 | pKd (GRIP2_3, Q9C0E4; [2]): below the threshold | pKd (RAPGEF6, Q8TEU7; [2]): below the threshold | pKd (LNX2_3, Q8N448; [2]): below the threshold | pKd (SNX27, Q96L92; [2]): 5.42 | pKd (FRMPD1, Q5SYB0; [2]): below the threshold | pKd (LIMK2, P53671; [2]): below the threshold | pKd (MAGI1_2, Q96QZ7; [2]): 3.55 | pKd (GORASP1, Q9BQQ3; [2]): below the threshold

DFLSTFHIRI [CIB2, O75838]
pKd (ARHGEF11, O15085; [2]): 3.64 | pKd (LNX1_3, Q8TBB1; [2]): 4.28 | pKd (PTPN13_1, Q12923; [2]): below the threshold | pKd (DVL3, Q92997; [2]): 3.59 | pKd (LNX2_2, Q8N448; [2]): 3.74 | pKd (GRIP2_6, Q9C0E4; [2]): 4.58 | pKd (HTRA4, P83105; [2]): 3.91 | pKd (NHERF4_2, Q86UT5; [2]): below the threshold | pKd (MAGI2_5, Q86UL8; [2]): below the threshold | pKd (PDZRN3_1, Q9UPQ7; [2]): below the threshold | pKd (CARD11, Q9BXL7; [2]): below the threshold | pKd (DLG5_1, Q8TDM6; [2]): below the threshold | pKd (GRIP1_4, Q9Y3R0; [2]): 3.9 | pKd (PDZD2_2, O15018; [2]): 3.71 | pKd (NOS1, P29475; [2]): below the threshold | pKd (PARD3_3, Q8TEW0; [2]): 4.28 | pKd (GRID2IP_2, A4D2P6; [2]): below the threshold | pKd (Inadl_3, Q8NI35; [2]): 4.49 | pKd (GRIP2_3, Q9C0E4; [2]): below the threshold | pKd (RAPGEF6, Q8TEU7; [2]): below the threshold | pKd (LNX2_3, Q8N448; [2]): below the threshold | pKd (SNX27, Q96L92; [2]): below the threshold | pKd (FRMPD1, Q5SYB0; [2]): below the threshold | pKd (LIMK2, P53671; [2]): below the threshold | pKd (MAGI1_2, Q96QZ7; [2]): below the threshold | pKd (GORASP1, Q9BQQ3; [2]): 4.59

— publication PMC9482650, “Quantitative fragmentomics allow affinity mapping of interactomes” (Nature Communications, 2022)
